The source of these data is the DeepSol protein solubility set.

The data set can be described thus: soluble on expression in E. coli; label from the status in PepcDB or PDB records.
For “VSIYLKPIINKLTPESRNTLDSAINYAISRSHHEVDCLHLLWKLLQEHKYIAEVLYEQSLFNPEWVLNAIESELIRINTVPQSSPVFSESMQTLLEKTWIHASTKWQIDHIDIPVFLSTMINFRDSIFPLNVSDALCCDMDVAEELLISFSDEAEHSASHRPTDRSSHEYLSKYTENLSLRAETGKLDPVTGREKEVRQLIDILLRRRQNNPILTGEPGVGKSSIVEGLALQIASGRVPDVLKNVRIHALDMGALLAGASVRGEFENRLKSLLTELNSLDGTAILFIDEAHSLIGAGGLPGQTDAANLLKPALARGELRIIAATTWGEYKKYFEKDGALARRFQIVKVAEPNQDVTAEMLRSLLPMMEKHHNVSIREEAITATVHLSDRYLHGRRQPDKSVSLLDTACSRVAVSQSTSPDAIQDVEASLVRYQGELALLTQERSDVLRQEMLANKIAQLEEELEQLKSAWRHQSELVAKIQSSDDISSKNMYRKELESAYKKDSPMVFECVDKNCVADVVSGWTGVPLGVCLDGEQQKASGLLRCLEQRVLGQRYAMSAIASQVLICRADLKDPVKPDGVFLLAGPSGTGKTETARALAEFVYGDENKLITINMTEFQEAHTVSTLKGAPPGYVGFGQGGTLTERVSHNPYSVILLDEIEKAHPDVLEFFFQIFDSGIIEDAEGKMVSFRDCLIIMTSNFASENITNIWNDGETNRDRIKEMLLPLFNEHFGAAFMGRTNLIPFTPLHSKTLRDIVLIKIDKICQRFEQASGQMYKIEYNDSLIDWITHHCQCDKSGARDIDSVLNSTVLPVLARYLTDSEDNRTPKKIRISVRKNNITLRSSQFATRN”, the “soluble on expression in E. coli” value is “not soluble”.

For the sequence “MRVYVGVDTGGTFTDFVYWDGKEWRVLKIPSTPSNPAEAVLKGLEKLRRGKALDVVHGSTVATNALLERKGAKTALITNKGFEDVIEIGRQNRERLYDLYYRKPKPLVPRELRFGLNCRINAKGEVLKPINREELKEILKALKEKGVESVAVCMLHSYANPEHEKEVEEELKKNLSVFVSLSSEILPEFREYERCSTTVINAYVSPKMSKYLYYLKDRLREGDLFRVMQSNGGLISPETASKEAVRTILSGPAGGVIGALHLGKLAGFEKLITFDMGGTSTDVSLIYGTPNITTESKIDGLPVKVPMIDINTVGAGGGSIAYVDEGGALRVGPQSAGAQPGPICYGRGGKEITVTDANLFLGRLVPEHFLGGEMKLYPELLEEPFKEMAKKIGLAPTELAEGIIKVANSSMERAIRKVSVERGYNPEEFALFSFGGAGGLHAVLLAKSLNIPKVIIPRNPGLLSAVGMLFADIVKDKVTTVMLKEEEAKPETLEKLFLLMEEKVLSEMEGEGFPPEKVFVERFLDVRYKGQSYEITIPFGENFKETFEKEHERLYGYAHRGRKIEIVNLRIKATGIKEKPPLKEFKERGDKYPKDAILGEREVVFEGRLETFKVLDREKLVYGNVIDFPAIVVEYSSTTLIPPYATAEVDRYGNLIITLL”, the “soluble on expression in E. coli” value is listed as “not soluble”.

Consider “SLSTIGSMMSIYSEAGDFGNIFVTGRIAFSLKYEQQTQSLVVHVKECHQLAYADEAKKRSNPYVKTYLLPDKSRQGKRKTSIKRDTVNPLYDETLRYEIPESLLAQRTLQFSVWHHGRFGRNTFLGEAEIQMDSWKLDKKLDHCLPLHGKISAESPTGLPSHKGELVVSLKYIPASKTPVGGDRKKSKGGEGGELQVWIKEAKNLTAAKAGGTSDSFVKGYLLPMRNKASKRKTPVMKKTLNPHYNHTFVYNGVRLEDLQHMCLELTVWDREPLASNDFLGGVRLGVGTGISNGEVVDWMDSTGEEVSLWQKMRQYPGSWAEGTLQLRSSMAKQKLG”, for which the “soluble on expression in E. coli” value was “soluble”.

Take “PKISQLVAPFELTQNNNDKAILLIHGLTDSPFSFHDLSQFFYQQGFTVRTLLLPGHGVAPSELLNTDYQAWQQAATFAIDQTLNDYQQVYLGGLSTGGALIFNYLMQQKQVDEKIKGLFMWSPATKAKSDLAWLAQYIDGIPFVDWIDLDADIDFAKYESFPYNAGAQVHALMNLVVGEGANASRQMHDIPLFVVASEHDQTIDTAHTLQLVQQWQLAS”: the “soluble on expression in E. coli” value is listed as “not soluble”.

As for “MSLSKKSILLLCCSLCFISATKAVTPVRNVRNSQVNSKAKTERTKPSDSVRYISNMIADRLEFRNKISSEKEVRKAEYENRLAMEALNYPAIDLYGEDSWSEYVNPFVGAGTDVEIPNSYDIDCSSFVMPVEDKQVTSQFGYRRRFGRMHYGIDLSVNRGDTIRAAFDGKVRVRSYEARGYGYYIVLRHPNGLETVYGHMSRQLVDENQIVRAGQPIGLGGSTGRSTGPHLHFETRFMGIPINPSTIIDFDNGVPLRDIYTFKRGSNSRYAKASKTSSRYAKKGKKGRQASSPMTYRIKKGDTLETIAKRHGTSVQKLCATNGIGKSKILTPGKALRIKEGHHHHHH”, the “soluble on expression in E. coli” value is “soluble”.

With “MGSDKIHHHHHHMKRKINYTHIAEPTVFENVFPTYLTNETMMARKQKVLQRMETEKFDQLVFYADKEHGSNFEYLTGFIPRFEEGLLVLNKDGAATLILGNENLKLCQHARISADLIHYLAFSLPNQPMAGEQKLSQIFETLLDETAQKIGIVGWKMFTTQQQEPATMFDVPHFIVEALKKALPKEARLLNGTHLLIGAKGARATNNANELAHYEYGANLASRSMLKALNAIEIGQRETDIGALLNDEGQTPTVVTIAATGQRFEYANMYPTAKEIQLGDALSLTTGYKGGLSSRTGFVIENEQQLPEAQRDYLERVAKPYFQAVVHWLETIRIGLLGREMYQAIEEQLPKEIYHWHLNPGHLVSDDEWMSSPIYPDSAIRLESGMLFQVDIIPSVPGYTGVSAEECVALADETLQKEIQQTYPDMWQRIATRKAYLKETLKLDLPSEVLPMSNLVGYLRPFYLAKDKALCVEKPALK”, the “soluble on expression in E. coli” value is on record as “not soluble”.

Consider “AHHHHHHGSTWREILRKEGFLDLGEFIVELVYIDCPCEPIPPTLAIYDKKGDEWYKVEEAPNVQNYREAVEWAIEVLERIRDGENVKLVSLDGPAPPKVMKRLSLALQKLTE”, for which the “soluble on expression in E. coli” value was “not soluble”.

For the sequence “MAPKSILITGANRGIGLGLLKQFIKNKDVQIIIGTCRDPSNATELNSIKDTRVHILQLDIDCDDSIRKLGAEVEKLVGEDGLTVLINNAGIFVPYDIDGEKSRSTLIRQLETNTISTVLITQELLPLLKRAAAKNRGEGYSINRSAIINISSTAGSITKIDASYNIPLVAYRMSKSALNSFGKSCSVDLAKYHILVTTFCPGWVKTDMGGANGKLEIDDATKTLSDNILILGDAHHGAYLNADLTVIPN”, the “soluble on expression in E. coli” value is listed as “soluble”.

On to “MDTIIYYSEMEGISLEHLKRSSGYDMRSNHFHNEYEIYFLTEGERLFFFNNRAYQVKKGSLILVDTNLIHMTHAPEDDTTGYTRIILYIDKFKMQQFDEKFPHLNLVPFFREHYGVYNLTQKQQEKFLHMYEVLKTEFSNRSRSYKALIEMEIIHYFIDFIRDNPELTPIKDETAIHKSSKYQ”, for which the “soluble on expression in E. coli” value is listed as “not soluble”.

For “MATQMRLTDTNLLEVLNSEEYSGVLKEFREQRYSKKAILYTPNTERNLVFLVKSGRVRVYLAYEDKEFTLAILEAGDIFCTHTRAFIQAMEDTTILYTDIRNFQNIVVEFPAFSLNMVKVLGDLLKLLLTIINGLVFKDARLRLAEFLVQAAMDTGLKVPQGIKLELGLNTEEIALMLGTTRQTVSVLLNDFKKMGILERVNQRTLLLKDLQKLKEFSSGV”, the “soluble on expression in E. coli” value is recorded as “soluble”.

Consider “MGHHHHHHSHMVKPLSPLNIQKLARHHGPRLWSQLLGRLRQVGHVGSGVRDQPGQHGETPISTKNTKISQASWPTPVVPATREAEVEGSLKSWGQGCSELLSHHCTPAWATVRPCLKKKRKMKQKLTCLLPPN”, for which the “soluble on expression in E. coli” value is given as “not soluble”.

As for “MLLEAIFHEAKGSYAYPISETQLRVRLRAKKGDVVRCEVLYADRYASPEEELAHALAGKAGSDERFDYFEALLECSTKRVKYVFLLTGPQGEAVYFGETGFSAERSKAGVFQYAYIHRSEVFTTPEWAKEAVIYQIFPERFANGDPSNDPPGTEQWAKDARPRHDSFYGGDLKGVIDRLPYLEELGVTALYFTPIFASPSHHKYDTADYLAIDPQFGDLPTFRRLVDEAHRRGIKIILDAVFNHAGDQFFAFRDVLQKGEQSRYKDWFFIEDFPVSKTSRTNYETFAVQVPAMPKLRTENPEVKEYLFDVARFWMEQGIDGWRLDVANEVDHAFWREFRRLVKSLNPDALIVGAIWHDASGWLMGDQFDSVMNYLFRESVIRFFATGEIHAERFDAELTRARMLYPEQAAQGLWNLLDSHDTERFLTSCGGNEAKFRLAVLFQMTYLGTPLIYYGDEIGMAGATDPDCRRPMIWEEKEQNRGLFEFYKELIRLRHRLASLTRGNVRSWHADKQANLYAFVRTVQDQHVGVVLNNRGEKQTVLLQVPESGGKTWLDCLTGEEVHGKQGQLKLTLRPYQGMILWNGR”, the “soluble on expression in E. coli” value is listed as “soluble”.

Consider “MDGIFAGIICNQANRCLTWTSQQLFSEKISGAEGTKLDDEFLDMERKIDVTNKVVAEILSKTTEYLQPNPAYRAKLGMLNTVSKIRGQVKTTGYPQTEGLLGDCMLKYGKELGEDSTFGNALIEVGESMKLMAEVKDSLDINVKQTFIDPLQLLQDKDLKEIGHHLKKLEGRRLDYDYKKKRVGKIPDEEVRQAVEKFEESKELAERSMFNFLENDVEQVSQLAVFIEAALDYHRQSTEILQELQSKLQMRISAASSVPRREYKPRPVKRSSSELNGVSTTSVVKTTGSNIPMDQPCCRGLYDFEPENQGELGFKEGDIITLTNQIDENWYEGMIHGESGFFPINYVEVIVPLPQ”, for which the “soluble on expression in E. coli” value is “soluble”.

For the sequence “MGRKISVIIPTHYRNDLLPTAIESVARQDYEPVELIVVDDSGEGYAEPVLSEYDEVIDRPIIKEENEGWQAAYTTGIEQSTGEYIQFLDDDDYLYETKLKKTANVLDQNPEVGVSYCGVVRGDEGDFYPKQEVSGHFLEPALRFQTFPMWTGSMLMEREVLCDCLPMAGMGEEDDLDIELGDTDLKIELAKRTKADYVDECLTFYRQEGNKLWTGKRRFKKILQNIRHQKDIYNQYPEIRRDLLAEWYERQGRNYLNEQIWSAQAIQCFIKSAYYERKQKFPRIIETLAAILGRPGVMSAVRVKRTLLDGLEHHHHHH”, the “soluble on expression in E. coli” value is reported as “not soluble”.

For “RGDSLNYRLLRPEVEKTGLQYPLVLFLHGAGERGSDNEKQLTHGGQMFLNPVNREKYPAFVLVPQCPEKDYWAYTSRPSSFIPSEMPVGQEITPVLRAVKELLDTYLDLPQVDRNRIYVVGLSMGGMATYDLAVRFPDTFAAAVPICGTVNPVRLADAANVRFRIFHGDADNVVPVEGSREAYKALKNLGAEVEYIEFPGCNHGSWNPAFNYPGFMEWLFAQRK”, the “soluble on expression in E. coli” value is “not soluble”.

Turning to “MRNIEEDLHKNEEEDPAPEVDDTDIPVDPLLTLLYIRHTLTSPWSSSEERDTAKAAMMEEMEKHNMAPYIRLVCEALGVPLDESKLAEMDAINAKKVAAFDARLKDAVDNLGDTEVRDVLQAKCDHYARIGDLEMCMKTNEECAAKTLATGPKLDLYFQRIRLGIAFSDNDIAAKGITDAHRLMKDGDWERRNRLRVYEGIYHVFIRDFQRGSTLLLDSITTFAAGELLTFQDFVFITVVASLPVLSRPELRKRIVYSPEVNRTGVDDVRELVNSIYDCQYNKVFPNLEVVCQHLRKVVYLSPHVSYFFREMRVLIFTQFLDSYSSVTLESMGAAFGIPVPALDSMLCTLISNERIACKVDRVDGSVETYRGDTTNFDYHRIVKSGDLLLNRIQKLSRLVDM”, the “soluble on expression in E. coli” value is on record as “soluble”.
